Measured values: the RNAGym collection of RNA variant scans (doi:10.1073/pnas.2313332121)

B1: TPR t1 (parent)
chain: GACCAAUCUGCCCUCAGAGCUCGAGAACAUCUUCGGAUGCAGAGGAGGCAGGCUUCGGUGGCGCGAUAGCGCCAACGUCCUCAACCUCCAAUGCAUCCCACCACAUGAUGAUGCCUGAAGAGCCUUGGUUUUUUG

Variants of: B1
Test: polymerase ribozyme fitness, log enrichment relative to wild type (log ratio); higher = more active; in vitro selection for triplet polymerase activity
How it was run: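 Each subunit of a heterodimeric triplet polymerase ribozyme was mutagenized into a library by PCR, transcribed, and subjected to one round of in vitro selection, run in triplicate. Libraries were annealed with a biotinylated primer, the partner subunit and triplets, incubated frozen at −7 °C, and extended constructs were gel-excised, captured on streptavidin beads and recovered by RT-PCR. Input and output libraries were sequenced on Illumina, keeping genotypes with ≥10 input reads and ≥1 read per output. Fitness is log base 2 of genotype enrichment divided by wild-type enrichment, from inverse-variance-weighted replicate averages.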

| Variant | polymerase ribozyme fitness (log ratio) |
| --- | --- |
| C85A U96A | -2.43 |
| G61U G77A U130G | -0.935 |
| U7A C82A U116C C123A | -2.73 |
| G60C G69U G93A G113C | -5.05 |
| G51U C53U G61U U130A | -3.08 |
| C64A G69C A75U U87A U96A | -1.55 |
| C11A A27G A41U C49G G61U | -3.34 |
| G36U A84C C85G C86U | -2.86 |
| C3G C13U G36U G45A C72U U125A G127U U131C | -2.84 |
| U7C U21G U96G | -1.67 |
| G93C U131A | -1.05 |
| G61U U116A | -3.38 |
| C64U U133G | -0.439 |
| U9G C34G A121U | -4.18 |
| G36A U106A C124A U129G | 0.262 |
| C15G C56G G57C C72G C104U U131C | -4.86 |
| A41G G44C G63A C102U C124A G128A | -4.69 |
| C72A C86U | -0.17 |
| U38G G52A G63C | -2.23 |
| C8U C15A G69A C73A C102U C123A | -5.63 |
| A27U G61A | -2.77 |
| C13U C64U A74U C82G | -1.47 |
| C12G C56U | -0.0119 |
| A100C U109A | -6.83 |

| Variant | polymerase ribozyme fitness (log ratio) |
| --- | --- |
| C64G C114A | -6.24 |
| A46C C72G | -2.19 |
| C11G C12G C73U C123G U125A | -2.92 |
| G44U C97A | -6.15 |
| U87A G120C U131G | 1.11 |
| C11G C13A C82G A84G | -1.63 |
| G45A C94U G120C | 0.045 |
| G45A U55C C70U G128A | -4.09 |
| A46U C62G C88A | -4.01 |
| C4A U78C | -1.45 |
| G69A C89G C97A A105C G110U | -6.73 |
| A84C C85U U87A C89G C124A | -5.8 |
| U9G A50C | -0.315 |
| C12A A27G C34G G61U A118C C123G | -8.42 |
| U59G G63U U129C | -2.43 |
| G42U U130A | -1.76 |
| G47U G71U A119U C123A | -2.79 |
| G19U U21A C79G C114A | -0.277 |
| C3G C72U | -2.37 |
| A2G C22U G61A A75U | -4.04 |
| A2G C15U A37U C101G C104A | -5.07 |
| U33G C72A C85G A90G G120C U129G | -7.02 |
| G47U C56G | -3.09 |
| G47U C56U | -1.38 |

| Variant | polymerase ribozyme fitness (log ratio) |
| --- | --- |
| A18C A27G | -5.05 |
| G36U C70G C101A G120A | -3.68 |
| U7A A50U G57A A83U | -1.44 |
| C11U C34A | -2.54 |
| C4G G110A | -2.16 |
| C3U G48A A68G | -3.84 |
| G61U C97A C124A | -2.39 |
| U32C A100C | -1.02 |
| U38G C80U | -1.64 |
| A18C C20U C53U | -1.72 |
| C4A C72U U109A C115U | -6.54 |
| C73U U106C | -0.194 |
| G10U U109A | -4.67 |
| C11G G42U C124U | 0.5 |
| C13U C98U | -1.1 |
| G52A U78G | -0.374 |
| G57U G128A | -1.33 |
| A6C A24G A26G U87G U112C A121G | -0.944 |
| C20A G120A | -1.89 |
| C13U U92A | -2.13 |
| G61C U92C | -2.59 |
| G110A C115A | -1.87 |
| C85G C124G U126G | -0.338 |
| A50U U59A G60C C80G C88U C123U | -1.82 |

| Variant | polymerase ribozyme fitness (log ratio) |
| --- | --- |
| G61C U106C G135U | -3.18 |
| G61C C102U | -3.06 |
| G17A U21A G39C C56U | -4.02 |
| G52A C86A A111C | -3.28 |
| U7A G47C C62U | -1.37 |
| C114U G122A | -2.83 |
| C13U G42U C56U C73U C114G C123A | -2.2 |
| G57A C72U G127U | -2.52 |
| C72A U96A U109G | -6.14 |
| A29U G120U | -0.652 |
| G42U C70U U126G | -5.19 |
| C11G G52A C94A | 0.0249 |
| A29G C124A | 0.584 |
| C4U A121U | 2.23 |
| A27U C115U | -3.71 |
| C70A G120C | -0.593 |
| C11G A83U U106C | -0.637 |
| G77A A83C C86U U116A G120C U125A | -1.96 |
| C28U C124U | -0.485 |
| C12U U14G C15G G61A C88U U129C | -1.38 |
| C4A C88U G120U | -2.67 |
| C86U G117A | -1.56 |
| C64A G93C G117C | -6.1 |
| C22A G69U | -3.88 |

| Variant | polymerase ribozyme fitness (log ratio) |
| --- | --- |
| G61A A103G | -2.38 |
| C28U A41C G57C | -2.88 |
| G47U C72A C76A C79A C80G C94G A100C U116G C124U U129A | -7.94 |
| A29U C62G | -2.45 |
| A26G C53G G77A | -2.93 |
| C72G C85A | -1.82 |
| C3A C8U | -1.3 |
| C34G G47U U55G G61C G63C C80U | -7.69 |
| A46G G113A G120U U133A | -3.17 |
| C8A C28U G52U G117C C124A G128A U133A | -6.69 |
| C8U C49G C123U | 1.73 |
| C4G U38A A95U G127C | -0.148 |
| C12U C53G | -0.45 |
| G63A A105G | -3.92 |
| G52A G57A C82U C85A A121U | -1.13 |
| U33G G35U G69U U78G A91C C114G G128C U132A G135A | -5.79 |
| A2C C101A U106A C115U A119G | 0.154 |
| A74C G110A | -1.2 |
| C64U A75U U116G G122A C124G | 0.737 |
| C12G C40G G45A C56U | -1.34 |
| A16U C49A C72A | -1.6 |
| C40G C88G U125G | -6.8 |
| C8G C49G A50U C79U U131C | -2.75 |
| U21A C86G | -0.987 |

| Variant | polymerase ribozyme fitness (log ratio) |
| --- | --- |
| C104A U134G | -1.17 |
| C8A C22G G63U U129G | -3.84 |
| G61U U87A | -0.452 |
| C22G C94U C101G | -5.92 |
| C13U C82A C97A | -4.74 |
| C3G C115A | -2.96 |
| A24G G44U G61A A74U U133G | -3.56 |
| C34A C123U | -1.54 |
| C89U G128C | -3.21 |
| C8G G45U G63C A83U A91C U112A | -1.6 |
| C11G A16U A24G G47C C72A A111C | -7.64 |
| C15U G48U A74C G77C | -2.27 |
| U14C C49A C56U U92G C97U A111U | -6.85 |
| C11A G61A G93A C101G U112A U132A | -1.04 |
| A50C C70U A105U | -3.71 |
| G19A G71C C115U G128U | -5.92 |
| G51U C62G C124G | -5.32 |
| A46U G107U | -5.66 |
| C13G C72U A119U | 0.275 |
| A41U C76A | -1.89 |
| C56G A103U U109G | -6.5 |
| U59G G61U A118U | -0.0772 |
| C3U G61U U78G U92G G120A G127U | -2.24 |
| A18U U96C U112A | -1.44 |

| Variant | polymerase ribozyme fitness (log ratio) |
| --- | --- |
| C12U A16C G42U U78A A121C | -0.175 |
| C73U A100U G110A | -1.9 |
| C15U A16U G23A G63A G93C C114G | -7.78 |
| A5C A46U A83C C86G C114A G117A | -6.85 |
| C40A G45U G71C U92A | -6.28 |
| C12U U32C G69U C76G G77U C80U A84G | -4.98 |
| A41U A43C C79U C80U C124U | -4.76 |
| C104A G120C G127A U129A | -2.25 |
| C82G U109G | -5.33 |
| U7A G57A | -0.474 |
| C13U C85U | -1.48 |
| U38G U106A | -1.09 |
| U59A U92G C104U | -2.6 |
| A50C G61U | -0.0844 |
| A90U U106A | -1.76 |
| A29G C53A C70G G110C | -5.69 |
| C82G C86U | -0.172 |
| G39U G60U | -0.635 |
| C11G G63C | -0.406 |
| A6U G113A | -1.07 |
| C12G C98A | -4.17 |
| C20G C56G A84U | -4.43 |
| C12U C79G C89A A121C | -3.82 |
